In data set [1] the test system is Activatable cytokine construct IFN-α-2b 1490DNI-hIgG4.
The subject of data set [2] is Activatable cytokine construct IFN-α2b-1204DNIdl-hIgG4.
Data set [3] concerns Activatable cytokine construct ProC440 (N IFNα2b 0 1204DNIdL 0AA Fc).
In data set [4] the test system is IFN-α2b-1204DNIdl-hIgG4 with five amino acid residues added to the linker.

We go through one substance from US20220402990.

On to “recombinant human urokinase-type plasminogen activator (uPA)”, for which the “protease cleavage, gel electrophoresis” value in data set [1], in data set [2] and in data set [4] was “The results suggest that the proteases were effective at cleaving the cleavable moieties in the activatable cytokine constructs” in each case. Further, the “protease cleavage, mass spectrometry” value in data set [3] is recorded as “Cleavage with uPa at the expected site in the CM was confirmed by Mass spectrometry analysis”.
